# Test results taken from US11491212.
# Biological target: Factor X, P00742
# Sequence (P00742 whole entry, looked up): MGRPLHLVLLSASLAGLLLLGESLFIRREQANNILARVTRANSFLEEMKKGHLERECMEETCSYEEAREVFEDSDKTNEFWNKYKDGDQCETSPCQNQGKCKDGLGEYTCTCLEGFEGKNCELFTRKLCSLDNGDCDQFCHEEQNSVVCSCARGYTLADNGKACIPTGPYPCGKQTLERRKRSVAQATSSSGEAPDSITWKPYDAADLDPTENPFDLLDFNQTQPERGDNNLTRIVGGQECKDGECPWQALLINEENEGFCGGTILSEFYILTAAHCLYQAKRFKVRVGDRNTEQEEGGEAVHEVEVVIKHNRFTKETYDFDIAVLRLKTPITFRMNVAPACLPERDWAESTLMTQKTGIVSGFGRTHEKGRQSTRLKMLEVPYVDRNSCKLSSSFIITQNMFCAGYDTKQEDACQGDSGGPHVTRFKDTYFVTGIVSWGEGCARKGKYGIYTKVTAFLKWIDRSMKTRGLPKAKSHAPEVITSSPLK
Protein,KM [µM],kcat/KM [M⁻¹ s⁻¹],% of WT kcat/KM [%]
FIXa-Y155F/N260S/R318Y/R338E/T343R/R403E/E410N (protein) chain 1: not shown chain 2: not shown,0.0402,1.5e+08,
FIXa K247N/N249S/R318Y/T343R/E410N (protein) chain 1: not shown chain 2: not shown,,2e+08,439
FIXa Y155F/K247N/N249S/T343R/R403E/E410N (protein) chain 1: not shown chain 2: not shown,,2.9e+08,635
FIXa-K228N/K247N/N249S/R318Y/R338E/T343R/R403E/E410N (protein) chain 1: not shown chain 2: not shown,0.0251,4.1e+08,
FIXa K247N/N249S/R338E/T343R/E410N (protein) chain 1: not shown chain 2: not shown,,3.1e+08,676
FIXa R338E/T343R/E410N (protein) chain 1: not shown chain 2: not shown,,9.3e+07,201
FIXa-Y155F/K228N/K247N/N249S/R318Y/R338E/T343R/R403E/E410N (protein) chain 1: not shown chain 2: not shown,0.0368,3e+08,
FIXa K247N/N249S/R338E/T343R/R403E (protein) chain 1: not shown chain 2: not shown,,5.6e+08,1215
FIXa Y155F/K247N/N249S/R338E/T343R/E410N (protein) chain 1: not shown chain 2: not shown,,1.8e+08,391
FIXa Y155F/K247N/N249S/R338E/T343R/R403E (protein) chain 1: not shown chain 2: not shown,,5.9e+08,1269
